In US20240409645A1 (DUALYX, published 2024):
Changes are numbered by the printed parent chain. Blank lines part the entries; values can stand above or below the binder they belong to.

Experiments:
[1] = target: T1, human common cytokine receptor γ-chain (IL-2Rγ) (human, UniProt P31785 23-262, limits assumed); experiment: P.E. off-rate SPR
T1 construct: Recombinant human IL-2Rγ protein, coated (ELISA) or amine-coupled to a CM5 chip (SPR); also called hu IL-2R; CD132
T1 sequence: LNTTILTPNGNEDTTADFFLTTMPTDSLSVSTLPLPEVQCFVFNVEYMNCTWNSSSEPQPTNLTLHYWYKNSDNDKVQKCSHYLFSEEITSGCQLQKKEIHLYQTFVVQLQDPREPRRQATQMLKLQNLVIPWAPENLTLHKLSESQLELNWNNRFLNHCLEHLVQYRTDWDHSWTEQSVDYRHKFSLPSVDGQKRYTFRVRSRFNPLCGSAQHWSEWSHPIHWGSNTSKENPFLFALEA
Experimental: (§1) SPR was performed to determine dissociation rates using Biacore 3000 instrument (GE Healthcare). Briefly, human and mouse IL-2R proteins were immobilized on carboxylmethyl dextran sensor chip (CM5) at approximately 2500 RUs using amine coupling in acetate buffer (GE Healthcare). The VHH-containing P.E. were loaded with a flow rate of 30 uL/min and the off-rates were measured over a 120s period.

[2] = target: T2, mouse common cytokine receptor γ-chain (IL-2Rγ) (mouse, UniProt P34902 23-263, limits assumed); experiment: P.E. off-rate SPR
T2 construct: Recombinant mouse IL-2Rγ protein; also called mo IL-2R; mouse IL-2R gamma
T2 sequence (looked up): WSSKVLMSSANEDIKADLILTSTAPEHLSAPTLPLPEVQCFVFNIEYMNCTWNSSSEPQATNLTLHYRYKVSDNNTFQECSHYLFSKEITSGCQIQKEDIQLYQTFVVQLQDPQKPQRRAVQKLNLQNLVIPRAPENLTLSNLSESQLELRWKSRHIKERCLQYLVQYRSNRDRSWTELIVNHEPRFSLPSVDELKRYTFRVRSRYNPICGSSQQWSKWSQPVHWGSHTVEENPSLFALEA
Experimental: as §1

[3] = target: T1, human common cytokine receptor γ-chain …; experiment: P.E. binding ELISA
Experimental: (§2) In a binding ELISA, human or mouse IL-2Rα, IL-2Rβ and IL-2Rγ proteins were coated directly on maxisorp microtiter plates overnight at 4° C. Free binding sites were blocked using 4% Marvel in PBS for 1 hour. Next, 1:5 dilution of P.E. in 1% Marvel/PBS were added to wells and incubated for 1 hour. […] Binding specificity was determined based on O.D. at 450 nm values compared to negative controls.

[4] = target: T2, mouse common cytokine receptor γ-chain …; experiment: P.E. binding ELISA
Experimental: as §2

[5] = target: T3, human IL-2Rα (human, UniProt P01589 22-240, limits assumed); experiment: ELISA, P.E. on coated antigen
T3 construct: recombinant protein; also called hu IL-2R; human IL-2Ra
T3 sequence: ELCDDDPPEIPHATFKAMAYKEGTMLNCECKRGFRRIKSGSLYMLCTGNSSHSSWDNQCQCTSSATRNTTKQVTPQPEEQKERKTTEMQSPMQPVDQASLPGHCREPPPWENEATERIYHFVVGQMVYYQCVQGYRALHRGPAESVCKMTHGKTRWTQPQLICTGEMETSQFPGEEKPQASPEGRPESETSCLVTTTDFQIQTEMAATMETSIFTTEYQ
Experimental: as §2

[6] = target: T3, human IL-2Rα; experiment: SPR, P.E. on immobilised antigen
Experimental: as §1

B1: FJ1427_P035MP07F01 (VHH)
VHH: QVQLVESGGGLVQAGGSLRLSCAASGRTLSRYAMGWFRQAPGKEREFVTANSWGGDTYYADSVQGRFTFSRDNAKNTVYLQMNSLQPEDTAVYYCAAAPTSFATTAYSSSNSYAYWGQGTQVTVSS
notes: tested as periplasmic extract; also called Clone nr
- koff [1]: 0.00297 s⁻¹
- koff [2]: 0.0855 s⁻¹
- PE binding ELISA OD [3]: 0.556 OD450 nm
- PE binding ELISA OD [4]: 0.047 OD450 nm

B4: FJ1427_P035MP07A03 (VHH)
VHH: B1 VHH with Q1E, F47Y, T49A, A50I, N51D, Y58F, Q64E, T77E, A97G, A114R
notes: as for B1
- koff [1]: 0.00174 s⁻¹
- koff [2]: 0.00795 s⁻¹
- PE binding ELISA OD [3]: 1.69 OD450 nm
- PE binding ELISA OD [4]: 0.869 OD450 nm

B5: FJ1427_P035MP07A05 (VHH)
VHH: B1 VHH with Q1E
notes: as for B1
- koff [1]: 0.00323 s⁻¹
- koff [2]: 0.127 s⁻¹
- PE binding ELISA OD [3]: 0.973 OD450 nm
- PE binding ELISA OD [4]: 0.046 OD450 nm

B8: FJ1427_P035MP07A02 (VHH)
VHH: B1 VHH with T28A, Y32L, T49V, N51S, G55D, Y58F, Q64K, E88G, V124A
notes: as for B1
- koff [1]: 0.00176 s⁻¹
- koff [2]: 0.0116 s⁻¹
- PE binding ELISA OD [3]: 0.829 OD450 nm
- PE binding ELISA OD [4]: 0.063 OD450 nm

B13: FJ1427_P035MP07A04 (VHH)
VHH: B1 VHH with A40G, T49A, N51D, A60D, Q64E, N73I, A74T, T77A
notes: as for B1
- koff [1]: 0.00126 s⁻¹
- PE binding ELISA OD [3]: 0.507 OD450 nm

B20: FJ1427_P035MP07A01 (VHH)
VHH: B1 VHH with Q1E, G16D
notes: as for B1
- koff [1]: 0.00151 s⁻¹
- PE binding ELISA OD [3]: 0.478 OD450 nm

B23: FJ1427_P035MP05A07 (VHH)
VHH: QVQLVESGGGLAQAGASLRLSCAASGRTLYSSYGMAWFRQAPGKERDFVGSISRYGTYTSYADSVKGRFTISRDNAKSTVYLQMNNTKPEDTAVYYCAAYTYSGSFYSTVKTHRDEYQYWGQGTQVTVSS
notes: periplasmic extract; also called clone nr
- OD (PE binding ELISA) [5]: 2.43 OD450 nm
- koff [6]: 0.00104 s⁻¹

B24: FJ1427_P035MP05C04 (VHH)
VHH: EVQLVESGGGSVQAGGSLRLSCEASGRTLFSSYGMGWFRQAPGKEREFVGAISRFGTYTSYADPVKDRFTISRDNAKSTVYLQMNNTKPEDTAVYYCAAYTYSGSFYSTVKTHHDEYRYWGQGTQVTVSS
notes: periplasmic extract; also called clone nr; 411
- OD (PE binding ELISA) [5]: 1.83 OD450 nm
- koff [6]: 0.000905 s⁻¹

B25: FJ1427_P035MP05C07 (VHH)
VHH: B24 VHH with E1Q
notes: periplasmic extract; also called 92-MP05C07
- OD (PE binding ELISA) [5]: 1.73 OD450 nm
- koff [6]: 0.00141 s⁻¹

B26: FJ1427_P035MP05E03 (VHH)
VHH: B23 VHH with Q1E, A12V, A16G, G67D
notes: as for B23
- OD (PE binding ELISA) [5]: 2.48 OD450 nm
- koff [6]: 0.000772 s⁻¹

B27: FJ1427_P035MP05B07 (VHH)
VHH: QLQLVESGGGLVQAGGSLRLSCAASGLTFDGYAIGWFRQASGKEREGVSYINGRDGSTFYADSVKGRFIISSDNAKNTVDLQMNSLKPDDAAVYYCAVDRLGSRGAYVSSWWRSPDMDLWGKGTLVTVSS
notes: as for B23
- OD (PE binding ELISA) [5]: 1.77 OD450 nm
- koff [6]: 0.00195 s⁻¹

B28: FJ1427_P035MP04F12 (VHH)
VHH: QVQLQESGGGWVQVGESLRLSCVPSGRTFVSGIMGWFRQAPGKEREFVARIILNNNSTRYTDSVKGRFTISRDSAKNTMYLQMNTLRPEDTAVYYCAARDRYGSGNSLSPSAYDYWGQGTQVTVSS
notes: as for B1
- koff [1]: 0.00714 s⁻¹
- PE binding ELISA OD [3]: 2.02 OD450 nm

B30: FJ1427_P035MP05E08 (VHH)
VHH: EVQLVESGGGSVQAGGSLRLSCEASGPTLFSSYGMGWFRQAPGKKEREFVGAISRYGTYTSYADPVKDRFTISRDNAKSTVYLQMNNTKPEDTAVYYCAAYTYSGSFYSTVKTHHDEYHYWGQGTQVTVSS
notes: as for B23
- OD (PE binding ELISA) [5]: 2.33 OD450 nm
- koff [6]: 0.000214 s⁻¹

B31: FJ1427_P035MP05D11 (VHH)
VHH: B30 VHH with E1Q, F70L, D75G
notes: as for B23
- OD (PE binding ELISA) [5]: 2.54 OD450 nm
- koff [6]: 0.000662 s⁻¹

The next lines start with the values.

- koff [1]: 0.00326 s⁻¹
- koff [2]: 0.144 s⁻¹
- PE binding ELISA OD [3]: 0.425 OD450 nm
- PE binding ELISA OD [4]: 0.044 OD450 nm
B2: FJ1427_P035MP07B08 (VHH)
VHH: B1 VHH with Q1E, L11S, A14P
notes: tested as periplasmic extract; also called Clone nr; 634

- koff [1]: 0.00346 s⁻¹
- PE binding ELISA OD [3]: 1.11 OD450 nm
B3: FJ1427_P035MP07H09 (VHH)
VHH: B1 VHH with T49A, A60T, Q64E, T77A, A114T
notes: as for B1

- koff [1]: 0.00278 s⁻¹
- koff [2]: 0.0132 s⁻¹
- PE binding ELISA OD [3]: 1.55 OD450 nm
- PE binding ELISA OD [4]: 0.058 OD450 nm
B6: FJ1427_P035MP07B03 (VHH)
VHH: B1 VHH with Q1E, T28A, Y32L, T49V, N51S, G55D, Y58F, Q64K, E88G
notes: as for B1

- koff [1]: 0.00321 s⁻¹
- PE binding ELISA OD [3]: 0.497 OD450 nm
B7: FJ1427_P035MP07F03 (VHH)
VHH: B1 VHH with A14T
notes: as for B1

- koff [1]: 0.0024 s⁻¹
- PE binding ELISA OD [3]: 1.14 OD450 nm
B9: FJ1427_P035MP07G09 (VHH)
VHH: QVQLQESGGGLVQAGGSLRLSCAASGRTLSRVAMGWFRQAPGKEREFVAADSWGGDTFYADSVEGRFTFSRDNAKNAVYLQMNSLQPEDTAVYFCAGAPASFATTAYSSSNSYSYWGQGTQVTVSS
notes: tested as periplasmic extract; also called Clone nr; 647

- koff [1]: 0.00273 s⁻¹
- koff [2]: 0.109 s⁻¹
- PE binding ELISA OD [3]: 1.12 OD450 nm
- PE binding ELISA OD [4]: 0.047 OD450 nm
B10: FJ1427_P035MP07A06 (VHH)
VHH: B1 VHH with A14P
notes: as for B1

- koff [1]: 0.00232 s⁻¹
- koff [2]: 0.0151 s⁻¹
- PE binding ELISA OD [3]: 1.32 OD450 nm
- PE binding ELISA OD [4]: 0.061 OD450 nm
B11: FJ1427_P035MP07B02 (VHH)
VHH: B1 VHH with Q1E, T28A, Y32L, T49V, N51S, G55D, Y58F, Q64K, E88G
notes: as for B1

- koff [1]: 0.00225 s⁻¹
- PE binding ELISA OD [3]: 0.359 OD450 nm
B12: FJ1427_P035MP07E07 (VHH)
VHH: B1 VHH with Q1E, K43S, T49A, N51S, Y58F, Q64E, T77A, V92A, A103P
notes: as for B1

- koff [1]: 0.00242 s⁻¹
- PE binding ELISA OD [3]: 0.759 OD450 nm
B14: FJ1427_P035MP07A10 (VHH)
VHH: B1 VHH with K43S, T49A, N51S, Y58F, Q64E, T77A, V92A, A103P
notes: as for B1

- koff [1]: 0.00277 s⁻¹
- koff [2]: 0.114 s⁻¹
- PE binding ELISA OD [3]: 0.97 OD450 nm
- PE binding ELISA OD [4]: 0.047 OD450 nm
B15: FJ1427_P035MP07B04 (VHH)
VHH: B1 VHH with Q1E
notes: tested as periplasmic extract; also called Clone nr; 602

- koff [1]: 0.00161 s⁻¹
- koff [2]: 0.0119 s⁻¹
- PE binding ELISA OD [3]: 0.518 OD450 nm
- PE binding ELISA OD [4]: 0.055 OD450 nm
B16: FJ1427_P035MP07A09 (VHH)
VHH: B1 VHH with T28A, Y32L, T49V, N51S, G55D, Y58F, Q64K, E88G
notes: as for B1

- koff [1]: 0.00243 s⁻¹
- PE binding ELISA OD [3]: 0.792 OD450 nm
B17: FJ1427_P035MP07D04 (VHH)
VHH: B1 VHH with Q1E, A40G, T49A, N51D, A60D, Q64E, N73I, A74T, T77A
notes: as for B1

- koff [1]: 0.00322 s⁻¹
- koff [2]: 0.112 s⁻¹
- PE binding ELISA OD [3]: 0.902 OD450 nm
- PE binding ELISA OD [4]: 0.045 OD450 nm
B18: FJ1427_P035MP07B06 (VHH)
VHH: B1 VHH with Q1E
notes: tested as periplasmic extract; also called Clone nr; 618

- koff [1]: 0.00267 s⁻¹
- PE binding ELISA OD [3]: 0.406 OD450 nm
B19: FJ1427_P035MP07C04 (VHH)
VHH: B1 VHH with L11V
notes: as for B1

- koff [1]: 0.00185 s⁻¹
- PE binding ELISA OD [3]: 1.24 OD450 nm
B21: FJ1427_P035MP07F08 (VHH)
VHH: B9 VHH with Q5V, V32D, F94Y, A100T, S114R
notes: tested as periplasmic extract; also called Clone nr; 638

- koff [1]: 0.00235 s⁻¹
- PE binding ELISA OD [3]: 0.518 OD450 nm
B22: FJ1427_P035MP07B01 (VHH)
VHH: B1 VHH with S70T
notes: as for B1

- koff [1]: 0.0186 s⁻¹
- PE binding ELISA OD [3]: 0.48 OD450 nm
B29: FJ1427_P035MP07C02 (VHH)
VHH: B28 VHH with Q1E, Q5V, V23A, A40T
notes: tested as periplasmic extract; also called Clone nr; 587
